Source: publication PMC10397247
Like-named read-outs stand apart in the source and are kept apart here.

Legend:
[1] = biological target: T1, 4H656-AA; experiment: two-hybrid library CCmax; conditions: mean of both orientations;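 also: natural log of median RNA to DNA barcode read ratio; higher means stronger binding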
T1 chain: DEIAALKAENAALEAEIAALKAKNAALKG

[2] = biological target: T2, 4H497-AA; experiment: two-hybrid library CCmax; conditions: mean of both orientations;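 also: natural log of median RNA to DNA barcode read ratio; higher means stronger binding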
T2 chain: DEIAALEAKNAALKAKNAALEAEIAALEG

[3] = biological target: T3, 4H464-AA; experiment: two-hybrid library CCmax; conditions: mean of both orientations;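 also: natural log of median RNA to DNA barcode read ratio; higher means stronger binding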
T3 chain: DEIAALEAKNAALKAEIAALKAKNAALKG

[4] = biological target: T4, 4H478-AA; experiment: two-hybrid library CCmax; conditions: mean of both orientations;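 also: natural log of median RNA to DNA barcode read ratio; higher means stronger binding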
T4 chain: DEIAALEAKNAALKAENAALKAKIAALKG

[5] = biological target: T5, 4H3939-AA; experiment: two-hybrid library CCmax;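 also: natural log of median RNA to DNA barcode read ratio; higher means stronger binding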
T5 chain: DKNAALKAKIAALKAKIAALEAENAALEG

[6] = biological target: T6, 4H483-AA; experiment: two-hybrid library CCmax; conditions: mean of both orientations;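 also: natural log of median RNA to DNA barcode read ratio; higher means stronger binding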
T6 chain: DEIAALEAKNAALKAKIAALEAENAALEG

[7] = biological target: T7, 4H971-AA; experiment: two-hybrid library CCmax; conditions: mean of both orientations
T7 chain: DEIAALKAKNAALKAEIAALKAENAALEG

[8] = biological target: T8, 4H63-AA; experiment: two-hybrid library CCmax; conditions: mean of both orientations
T8 chain: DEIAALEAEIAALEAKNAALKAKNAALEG

[9] = biological target: T9, 4H428-AA; experiment: two-hybrid library CCmax; conditions: mean of both orientations
T9 chain: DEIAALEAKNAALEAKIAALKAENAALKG

[10] = biological target: T10, 4H446-AA; experiment: two-hybrid library CCmax; conditions: mean of both orientations
T10 chain: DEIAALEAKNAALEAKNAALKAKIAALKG

[11] = biological target: T11, 4H3969-AA; experiment: two-hybrid library CCmax
T11 chain: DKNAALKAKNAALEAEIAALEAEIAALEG

[12] = biological target: T12, 4H675-AA; experiment: two-hybrid library CCmax; conditions: mean of both orientations
T12 chain: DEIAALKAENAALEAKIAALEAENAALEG

[13] = biological target: T13, 4H380-AA; experiment: two-hybrid library CCmax
T13 chain: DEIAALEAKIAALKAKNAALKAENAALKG

[14] = biological target: T14, 4H3974-AA; experiment: two-hybrid library CCmax; conditions: mean of both orientations
T14 chain: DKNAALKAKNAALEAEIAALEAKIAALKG

[15] = biological target: T15, 4H3915-AA; experiment: two-hybrid library CCmax; conditions: mean of both orientations
T15 chain: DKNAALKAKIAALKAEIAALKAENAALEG

[16] = biological target: T16, 4H3777-AA; experiment: two-hybrid library CCmax
T16 chain: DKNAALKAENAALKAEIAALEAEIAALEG

[17] = biological target: T17, 4H432-AA; experiment: two-hybrid library CCmax; conditions: mean of both orientations
T17 chain: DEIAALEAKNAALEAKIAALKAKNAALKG

[18] = biological target: T18, 4H968-bH; experiment: two-hybrid library CCNG1
T18 chain: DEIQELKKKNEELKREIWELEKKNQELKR

[19] = biological target: T19, 4H953-bH; experiment: two-hybrid library CCNG1
T19 chain: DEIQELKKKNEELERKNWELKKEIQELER

[20] = biological target: T20, 4H967-bH; experiment: two-hybrid library CCNG1
T20 chain: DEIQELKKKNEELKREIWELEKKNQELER

[21] = biological target: 4H_GCN4; experiment: two-hybrid library CCmax
Sequence of 4H_GCN4 (chain, as listed by the source): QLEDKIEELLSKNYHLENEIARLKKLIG

[22] = biological target: T21, 4H_APH; experiment: two-hybrid library CCmax; conditions: mean of both orientations
T21 chain: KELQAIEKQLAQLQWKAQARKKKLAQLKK

[23] = biological target: T22, 4H_BCR; experiment: two-hybrid library CCmax; conditions: mean of both orientations
T22 chain: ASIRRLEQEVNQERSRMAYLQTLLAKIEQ

[24] = biological target: T23, 4H56-AA; experiment: two-hybrid library CCmax
T23 chain: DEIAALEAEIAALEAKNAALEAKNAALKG

[25] = biological target: GCN2_T; experiment: two-hybrid library CCmax
[26] = biological target: T24, APC9319-AA; experiment: two-hybrid library CCmax
T24 chain: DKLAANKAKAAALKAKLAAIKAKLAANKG

[27] = biological target: T25, APC8516-AA; experiment: two-hybrid library CCmax
T25 chain: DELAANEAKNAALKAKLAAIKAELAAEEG

[28] = biological target: T26, APC9141-AA; experiment: two-hybrid library CCmax; conditions: mean of both orientations
T26 chain: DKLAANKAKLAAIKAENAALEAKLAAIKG

[29] = biological target: T27, APC9182-AA; experiment: two-hybrid library CCmax; conditions: mean of both orientations
T27 chain: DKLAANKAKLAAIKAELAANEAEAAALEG

[30] = biological target: T28, APC9806-AA; experiment: two-hybrid library CCmax; conditions: mean of both orientations
T28 chain: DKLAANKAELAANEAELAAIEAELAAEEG

[31] = biological target: T29, APC9291-AA; experiment: two-hybrid library CCmax; conditions: mean of both orientations
T29 chain: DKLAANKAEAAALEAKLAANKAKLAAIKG

[32] = biological target: T30, 4H391-AA; experiment: two-hybrid library CCmax; conditions: mean of both orientations
T30 chain: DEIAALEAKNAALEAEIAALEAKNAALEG

[33] = biological target: T31, 4H3666-AA; experiment: two-hybrid library CCmax
T31 chain: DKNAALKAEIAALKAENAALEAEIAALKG

[34] = biological target: T32, 4H3709-AA; experiment: two-hybrid library CCmax; conditions: mean of both orientations
T32 chain: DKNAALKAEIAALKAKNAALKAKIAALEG

[35] = biological target: T33, 4H3920-AA; experiment: two-hybrid library CCmax; conditions: mean of both orientations
T33 chain: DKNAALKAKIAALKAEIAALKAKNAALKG

[36] = biological target: T34, 4H3782-AA; experiment: two-hybrid library CCmax; conditions: mean of both orientations
T34 chain: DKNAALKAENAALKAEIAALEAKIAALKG

[37] = biological target: T35, 4H3629-AA; experiment: two-hybrid library CCmax
T35 chain: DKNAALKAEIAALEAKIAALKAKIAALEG

## DKNAALKAKIAALKAKIAALEAENAALEG [4H3939-AA]
[1]
  interaction score: -0.924
[2]
  interaction score: -1.92
[3]
  interaction score: -1.97
[4]
  interaction score: -1.63
[5]
  interaction score: -1.07
[6]
  interaction score: -2.02
[7]
  interaction score: -1.81
[8]
  interaction score: 1.57
[9]
  interaction score: -1.64
[10]
  interaction score: -0.459
[11]; mean of both orientations
  interaction score: -0.371
[12]
  interaction score: -1.53

## DKNAALKAENAALKAEIAALEAEIAALEG [4H3777-AA]
[13]; mean of both orientations
  interaction score: -1.42
[14]
  interaction score: -0.511
[15]
  interaction score: -0.495
[8]
  interaction score: -1.54
[10]
  interaction score: -0.779
[16]
  interaction score: -0.62
[17]
  interaction score: -1.01

## DEIQELKKKNEELERKNWELKKEIQELER [4H953-bH]
[18]
  interaction score: -1.63
[19]
  interaction score: -0.129
[20]
  interaction score: -0.919

## DKNAALKAKNAALEAEIAALEAEIAALEG [4H3969-AA]
[3]
  interaction score: -0.91
[6]
  interaction score: -1.99
[8]
  interaction score: -1.93
[10]
  interaction score: 1.05
[11]
  interaction score: -1.61

## DEIAALEAEIAALEAKNAALEAKNAALKG [4H56-AA]
[21]
  interaction score: -1.92
[22]
  interaction score: -1.29
[23]
  interaction score: -1.53
[24]
  interaction score: -0.981
[25]
  interaction score: -1.38

## DKLAANKAKAAALKAKLAAIKAKLAANKG [APC9319-AA]
[26]
  interaction score: -1.58

## DELAANEAKNAALKAKLAAIKAELAAEEG [APC8516-AA]
[27]
  interaction score: -1.87
[28]
  interaction score: -1.56
[29]
  interaction score: -1.64
[30]
  interaction score: -1.63
[31]
  interaction score: -1.91

## DKNAALKAEIAALKAENAALEAEIAALKG [4H3666-AA]
[1]
  interaction score: 0.306
[2]
  interaction score: -1.84
[32]
  interaction score: -1.26
[4]
  interaction score: 0.407
[5]; mean of both orientations
  interaction score: -1.61
[7]
  interaction score: 1.3
[33]
  interaction score: 0.925
[34]
  interaction score: 1.48
[35]
  interaction score: -1.45
[9]
  interaction score: -1.27
[12]
  interaction score: -2.19

## DEIAALEAKIAALKAKNAALKAENAALKG [4H380-AA]
[3]
  interaction score: -1.6
[13]
  interaction score: -0.176
[5]; mean of both orientations
  interaction score: 0.0894
[6]
  interaction score: -1.15
[14]
  interaction score: -0.717
[15]
  interaction score: 0.315
[8]
  interaction score: -0.855
[10]
  interaction score: -1.43
[17]
  interaction score: -1.71
[11]; mean of both orientations
  interaction score: -1.28

## DKNAALKAEIAALEAKIAALKAKIAALEG [4H3629-AA]
[36]
  interaction score: -0.119
[3]
  interaction score: -1.75
[13]; mean of both orientations
  interaction score: -1.46
[5]; mean of both orientations
  interaction score: -0.964
[37]
  interaction score: 1.82
[6]
  interaction score: -1.87
[14]
  interaction score: 0.236
[15]
  interaction score: -0.761
[8]
  interaction score: -0.266
[10]
  interaction score: -1.96
[16]; mean of both orientations
  interaction score: -0.576
[17]
  interaction score: -2.37
[11]; mean of both orientations
  interaction score: -1.01

## DEIQELKKKNEELKREIWELEKKNQELKR [4H968-bH]
[18]
  interaction score: 0.196
